Data on one substance can be found in PMC11524475.

This experiment concerns the target NbNRC2-6xHis-3xFLAG, affinity-purified from N. benthamiana leaves (Nicotiana benthamiana). The experiment is described as follows: SEC; purified NbNRC2-6xHis-3xFLAG on Superdex 200 Increase 10/300 GL, 25 mM Tris-HCl pH 8, 500 mM NaCl, 5% glycerol, 1 mM EDTA, 4°C; size estimated from a protein standard curve.

Take “NbNRC2-6xHis-3xFLAG, affinity-purified from N. benthamiana leaves (natural protein)”: the stoichiometry N (commonly the number of molecules, sites or subunits per partner or assembly) is 2.
